The assay addresses T1, FLAG-Htt103Q-GFP (Huntingtin with 103Q glutamine stretch, lacking the proline-rich region) (UniProt P42858 1-17).
T1 chain: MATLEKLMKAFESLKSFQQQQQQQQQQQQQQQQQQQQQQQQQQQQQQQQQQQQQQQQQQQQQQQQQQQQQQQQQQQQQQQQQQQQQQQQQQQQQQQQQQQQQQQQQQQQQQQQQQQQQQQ
Nature of the assay: co-IP.

A value given as a limit tells only on which side of the number the result lay.

B1: Ssa1 (Hsp70) (natural protein)
chain: not shown
With B1, the “fold change of the co-precipitate, Sti1 elevated against endogenous Sti1” value was greater than 2 fold.

B2: Sis1 (type II Hsp40) (natural protein)
chain: MVKETKLYDLLGVSPSANEQELKKGYRKAALKYHPDKPTGDTEKFKEISEAFEILNDPQKREIYDQYGLEAARSGGPSFGPGGPGGAGGAGGFPGGAGGFSGGHAFSNEDAFNIFSQFFGGSSPFGGADDSGFSFSSYPSGGGAGMGGMPGGMGGMHGGMGGMPGGFRSASSSPTYPEEETVQVNLPVSLEDLFVGKKKSFKIGRKGPHGASEKTQIDIQLKPGWKAGTKITYKNQGDYNPQTGRRKTLQFVIQEKSHPNFKRDGDDLIYTLPLSFKESLLGFSKTIQTIDGRTLPLSRVQPVQPSQTSTYPGQGMPTPKNPSQRGNLIVKYKVDYPISLNDAQKRAIDENF
As to B2, the “fold change of the co-precipitate, Sti1 elevated against endogenous Sti1” value is roughly 4 fold.
